According to patent publication US20250026813A1 (published 2025):
Changes are numbered by the printed parent chain.

B1: YANG-2205 (antibody, V domains shown)
VH: QIQLVQSGAEVKKPGASVKFSCKTSGYTFTSYYMVWVRQAPGQGLEWMGIIKPSGGNTIYAQKFQGRVTMTRDTSTNTVYMDLSSLRSEDTAVYYCARTGDRAFDVWGHGTMITVSS
VL: QSVLTQPPSVSAAPGQKVTISCSGSSSNIGNNFVSWYQQFPGTAPKLLIYDNNKRPSGIPDRFSGSKSGTSATLGITGLQTGDEADYYCGTWDSSLGAGVFGGGTKLTVL
B2: YANG-2206 (antibody, V domains shown)
VH: B1 VH with F20L, Y60F, S84N, I113V
VL: B1 VL with F33Y, L107V
B3: YANG-2207 (antibody, V domains shown)
VH: B1 VH with I2M, F20I, S31N, M81L, D101N, I113V
VL: B1 VL
B4: YANG-2208 (antibody, V domains shown)
VH: B1 VH with K12R, K19R, T28I, S31N, S84N, S85N, Y95F, H109Q, I113V
VL: B1 VL with V10M, S25N, Q38R, G97S
B5: YANG-2301 (antibody, V domains shown)
VH: QVHLIQSGAEVKKPGASVKVSCKVSGYTLIEVSVHWVRQAPGKGLEWMGGFDPEAAETIYAQKFQGRVTMTEDTSTDTAYMDLSSLKSEDSAVYYCAIGPAVTGRNSGEYYYYYGMDVWGQGTTVTVAS
VL: EIVMTQSPATLSVSPGERATLSCRASQSVNSNLAWYQQKPGQAPRLLIYAVSTRATGLPARFSGSGSGTEFTLTISSLQSEDFVVYYCHQYNNWPLTFGGGTKVEIK
B6: YANG-2302 (antibody, V domains shown)
VH: QVQLVQSGAEVRKPGASVKVSCKVSGYTLPELAIHWVRQAPGKGLEWMGGFIPEDGDTIYAQKFQGRVTMTEDTSTDTAYMDLTSLRSEDAAVYYCTSGWAAPGYNYGMAVWGQGTTVTVSS
VL: EVVLTQSPGTLSLSSGERATLSCRASQSVSSNYLAWYQKKPGQAPRLLIYGASSRVTGIPDRFGGSGSGTDFTLTISRLEPEDFAVYYCQQYDASPYSFGQGTKLDIK
B7: YANG-2303 (antibody, V domains shown)
VH: QVQLVQSGAEVKKPGASVRVSCKVSGYTLPELAIHWVRQAPGKGLEWMGGFDPEDGETIYAQKFQGRVIMTEDTSTDTAYMDLSSLRSEDTAVYYCVKTWAAPGYNYGLDTWGQGTTVTVSS
VL: EIVLTQSPGILSLSPGESATLSCRASQSIASNYLAWFQQKPGQAPRLLIYGASSRAAGFPDRFSGSGSGTDFTLTIKRLEPEDSAVYYCQHYGSSPCSFGQGTNLEIK
B8: YANG-2304 (antibody, V domains shown)
VH: QVQLVQSGTEVKKPGASVKVSCKVSGYTLPELAIHWVRQAPGKGLEWMGTFDPEDGETICAQKFQGRVTMTEDTSTDTAYMDLSSLRSEDTAVYYCATTSIIAARWWFDPWGQGTLVTVSS
VL: QSALTQPPSASGSPGQSVTISCTGTSSDVGGYDYVSWYQQHPGKAPKLMIYEVSKRPSGVPDRFSGSKSGNTASLTVSGLQAEDEADYYCSSFAGSNNVVFGGGAKLTVL
B9: YANG-2305 (antibody, V domains shown)
VH: QVQLVESGGGVVQPGRSLRLSCAASGFTFSSYGMHWVRQAPGKGLEWVAIIWYDGSKKYYADSVKGRFTISRDNSKNTLNLQMNSLRAEDTAVYYCAREEDIVASGGLYYNFNGMDVWGQGTTVTVSS
VL: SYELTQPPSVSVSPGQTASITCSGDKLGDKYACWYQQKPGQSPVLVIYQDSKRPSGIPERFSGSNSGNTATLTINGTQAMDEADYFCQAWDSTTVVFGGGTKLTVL
B10: YANG-2306 (antibody, V domains shown)
VH: QVQLVQSGAEVKKPGASVKVSCKVSGYTLPEISIHWVRQAPGKGLEWMGGFDPEDGETIYAQKFQGRVIMTEDTSTDTAYMDLSSLRSEDTAVYFCAAAPAIASASTFWLDPWGQGTLVTVST
VL: B8 VL with D33N, S54T, G70D, F93Y, V99L, A105T
B11: IMPI-024 (antibody, V domains shown)
VH: EVQLVQSGAEVKKPGESLKISCKGSGYSFTSYWIGWVRQMPGKGLEWMGIIYPGDSDTRYSPSFQGQVTISADKSISTAYLQWSSLKASDTAMYYCVRSYNWNYFDYWGQGTLVTVSS
VL: AIQLTQSPSSLSASVGDRVTITCRASQGISSGLAWYQQKAGKAPKLLIYDVSSLESGVPSRFSGSGSGTDFTLTISSLQPEDFATYYCQQFLSYPWTFGQGTKVEIK
B12: IMPI-029 (antibody, V domains shown)
VH: EVQLVESGGGLIQPGGSLRLSCAASGVTVSSNYMNWVRQAPGKGLEWVSVIYSGGSTYYADSVKGRFTISRDNSKNTLFLQMNSLRAEDSAVYYCARDLGPYGVDVWGQGTTVTVSS
VL: DIQLTQSPSFLSASVGDRVTITCWASQGISSYLAWYQQKPGKAPKLLIYAASTLQSGVPSRFSGSGSGTEFTLTISSLQPEDFATYYCQELNSYPLTFGQGTRLEIK
B13: IMPI-005 (antibody, V domains shown)
VH: B12 VH with V27F
VL: B12 VL
B14: IMPI-021 (antibody, V domains shown)
VH: B12 VH with N35S, Y58F, F79Y, S90T, G100S, P101Y, V104M
VL: B12 VL with R61K, E90Q, L96C, T97S, R103K
B15: IMPI-060 (antibody, V domains shown)
VH: B12 VH with N35S, Y58F, F79Y, S90T, G100S, P101Y, V104M
VL: B12 VL with R61K, E90Q, L96S, T97S, R103K
B16: IMPI-054 (antibody, V domains shown)
VH: EVQLVESGGGLIQPGGSLRLSCAASGLTVSSNYMSWVRQAPGKGLEWVSIIYSGGSTYYADSVKGRFTISRDNSKNTLYLQMNSLRAEDTAVYYCARLGGYYYYGMDVWGQGTTVTVSS
VL: DIQMTQSPSSLSASVGERVTITCQASQDIRNYLNWYQKKPGKAPKLLIYDSSNLETGVPSRFSGSGSGTDFTFTISSLQPEDIATYYCQQYDNLPITFGQGTRLEIK
B17: IMPI-042 (antibody, V domains shown)
VH: B16 VH
VL: B16 VL with S65G
B18: IMPI-063 (antibody, V domains shown)
VH: EVQLVESGGGVVRPGGSLRLSCAASGFTFDDYGMSWVRQAPGKGLEWVSGIYWNGGSTGYADSVKGRFTISRDNAKNSLYLQMNSLRAEDMALYYCARGVGATDYWGQGTLVTVSS
VL: EIVLTQSPGTLSLSSGERATLACRASESVRGSFLAWYQQKPGQAPRLLIYGASRRATGIPDRFSGSGSGTDFTLTISRLEPEDFAVYYCQQYGNSPMCSFGQGTKLEIK
B19: IMPI-047 (antibody, V domains shown)
VH: B12 VH with V27F, F79Y, A87T, S90T, G100V, P101A, V104M
VL: B12 VL with L46V, E90L, Y94N, Q100G, R103K, L104V
B20: IMPI-006 (antibody, V domains shown)
VH: QLQLQESGPGLVKPSETLSLTCTVSGGSISNSNYYWGWIRQPPGKGLEWIGSIYYSGRTYYNPSLKSRVTISVDTSKNQFSLKLSSVTAADTAVYYCARMGLLWFGEFYGMDVWGQGTTVTVSS
VL: DIQMTQSPSSLSASVGDRVTITCRASQGISSWLAWYQQKPEKAPKSLIYDASSLQRGVPSRFSGSGSGTDFTLTISSLQPEDFASYYCQQYNSYPLTFGGGTRVEIK
B21: IMPI-055 (antibody, V domains shown)
VH: QVQLVQSGAEVKKPGASVKVSCKASGYTFTSYDINWVRQATGQGLEWMGWMNPNSGNTGYAQKFQGRVTMTRDTSINTAYMELSSLRSEDTAVYFCARGGRYCSDVTCYSGEPFDYWGQGTLVTVSS
VL: EIMLTQSPDFQSVTPKEKVTITCRASQSIGSSLHWYQQKPDQSPKLLIKFASQSISGVPSRFSGSGSGTDFTLTINSLEAEDAAAYYCHQSSSLPHTFGPGTKVEIK
B22: IMPI-017 (antibody, V domains shown)
VH: B12 VH with S25A, V27L, A40V, F79Y, S90T, P101T, Y102L, V104M
VL: B12 VL with S31T, E90Q, P95L, L96P, R103K, L104V
B23: IMPI-038 (antibody, V domains shown)
VH: QVQLVESGGGVVQPGRSLRLSCAASGFTFSSYGMHWVRQAPGKGLEWVAVISYDGSDKYYADSVKGRFTISRDNSKNTLYLQMNSLRAEDTAVYYCAKTVAGYYYYYYGMDVWGQGTTVTVSS
VL: DIQMTQSPSSVSASVGDRVTVTCRASQDISSWLAWFQQKPGKAPKFLIYDASNLENGVPSRFSGSGSGTDFTLTISSLQPEDFATYYCQQAKSFPWTFGQGTKVEIN

What was measured:
[1] = target: SARS-CoV-2 spike protein bearing furin mutation and truncation in retention sequence, presented in t (SARS-CoV-2, UniProt P0DTC2 14-1273); assay: cell-based or functional assay
[2] = target: full-length stabilised spike trimer protein of SARS-CoV-2 virus (in-house, soluble ECD with trimeris (SARS-CoV-2, UniProt P0DTC2 14-1208; P10104 458-484)
[3] = target: T1, S1 subunit of the SARS-CoV-2 spike protein (Sino Biological 40591-V08H), His tag (SARS-CoV-2, UniProt P0DTC2 16-685)
T1 construct: domain: S1 subunit

Binder | PV neutralisation IC50 [1] [nM] | PV neutralization % (Ab 1 ug/mL) [1] [%] | HTRF deltaF [2] [deltaF] | HTRF deltaF [3] [deltaF]
B1 | 3.35 | 47.5 | – | –
B2 | 3.96 | 42 | – | –
B3 | 2.59 | 57.8 | – | –
B4 | 4.68 | 38.2 | – | –
B5 | 0.53 | 56.4 | – | –
B6 | 0.61 | 52.2 | – | –
B7 | 0.48 | 58.6 | – | –
B8 | 0.74 | 52.8 | – | –
B9 | 0.57 | 64.4 | – | –
B10 | 0.43 | 60.4 | – | –
B11 | – | – | 1460 | 799
B12 | – | – | 1700 | 3050
B13 | – | – | 1360 | 1510
B14 | – | – | 962 | 1280
B15 | – | – | 488 | 378
B16 | – | – | 563 | 772
B17 | – | – | 926 | 617
B18 | – | – | 968 | -0.4
B19 | – | – | 1410 | 2250
B20 | – | – | 1060 | 885
B21 | – | – | 551 | 1030
B22 | – | – | 550 | 752
B23 | – | – | 1310 | –
